Reference: US20260234236A1 (INTERVET, published 2026)

Columns and labels:
[1] = target: T1, Recombinant canine IL-13 (R&D Systems, Catalog: 5894-CL/CF) (canine, UniProt Q9N0W9 19-131, limits assumed); test: cell-based or functional assay
T1 sequence (looked up): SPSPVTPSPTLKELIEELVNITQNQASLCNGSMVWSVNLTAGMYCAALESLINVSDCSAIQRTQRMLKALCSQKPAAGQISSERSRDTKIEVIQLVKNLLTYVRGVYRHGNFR

[2] = target: T2, Canine IL-13 with C-terminal Avi-HIS tag (canine, biotin label when loaded on SA biosensors (Example 4); site not stated); test: BLI (OCTET HTX); biotin-mAb on SA biosensors, cIL-13 in solution; 1:1 model
T2 construct: also called cIL-13; biotinylated avitag-cIL13
T2 chain: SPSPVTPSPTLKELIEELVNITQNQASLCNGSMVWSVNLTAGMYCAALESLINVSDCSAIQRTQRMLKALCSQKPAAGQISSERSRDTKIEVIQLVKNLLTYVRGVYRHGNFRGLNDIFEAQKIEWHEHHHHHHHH
Description: Selected scFv specific to cIL-4 or cIL-13 were converted into full length canine IgG mAbs and tested for binding by OCTET. All kinetics measurements were performed by OCTET HTX using SA biosensors and Data Acquisition 12.0 software. First, each biotin-labeled full-length anti-canine IL-4 or anti-canine IL-13 mAb, at a concentration of 5 μg/mL, were loaded onto the pre-rehydrated SA biosensors until binding signal change ascended to a […] threshold for all channels from the step start or for a maximum of 1200s to insure equal loading density. Second, the biosensors were placed into OCTET Kinetics Buffer (PBS+0.02% Tween20, 0.1% BSA) for the blocking phase for 60s. Third, for the association phase, full-length anti-canine IL-4 mAb or anti-canine IL-13 mAb loaded biosensors were placed into 2-fold serial dilutions from 1000 nM down to 15.6 nM of cIL-4 or cIL-13, respectively, in OCTET Kinetics Buffer for 60s. The last well was buffer alone and that sensor was used for reference sensor subtraction. Finally, the biosensors were placed into OCTET Kinetics Buffer for the dissociation phase for 180s. Analysis was performed using Data Analysis 12.0 software and curves were fitted using a 1:1 binding model.

[3] = target: T3, Recombinant canine IL-4 (R&D Systems, Catalog: 752-CL/CF) (canine, UniProt O77762 25-132); test: cell-based or functional assay
T3 sequence (looked up): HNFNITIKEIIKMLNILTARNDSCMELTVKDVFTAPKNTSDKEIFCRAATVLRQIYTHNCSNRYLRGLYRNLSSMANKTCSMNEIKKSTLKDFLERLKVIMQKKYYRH

[4] = target: T4, Canine IL-4 with C-terminal Avi-HIS tag (canine, biotin label when loaded on SA biosensors (Example 4); site not stated); test: DSS cross-linking and High-Mass MALDI MS
T4 construct: also called cIL-4; biotinylated avitag-cIL-4
T4 chain: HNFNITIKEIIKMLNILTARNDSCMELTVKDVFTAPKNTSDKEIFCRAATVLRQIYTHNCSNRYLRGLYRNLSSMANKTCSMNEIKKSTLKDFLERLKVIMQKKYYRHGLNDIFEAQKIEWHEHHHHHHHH
From the text: In order to identify potentially discontinuous epitopes recognized by the antibodies of the present invention to their respective antigens, e.g., canine IL-4 or canine IL-13, a method was employed that was based on chemical crosslinking using disuccinimidyl suberate (DSS) and mass spectrometry detection (XL-MS) at CovalX Inc. (CovalX® Instrument Incorporated; Covalx.com). With this method, the binding of a canine antibody to its corresponding canine antigen in the presence of a mass-labeled chemical crosslinker is performed. The cross-linking experiments allow the direct analysis of non-covalent interaction by High-Mass MALDI (matrix assisted laser desorption ionization) mass spectrometry. […] The covalent binding generated allows the interacting species to survive the sample preparation process and the MALDI ionization. A High-Mass detection system allows characterizing the interaction in the High-Mass range.
The presence of the antigen-antibody complex were confirmed using High Mass MALDI detection. […]

B1: IL13-P3-1G5VH-cIgGB/IL13-P3-1G5VL-cCL (antibody, V domains shown)
VH: EVQLVQSGGDLVKPGGTLRLSCVASGFTFSSYDMSWVRQSPGKGLQWVAAIWNDGSNTEYADAVKGRFTVSRDNAKNTVYLEMNSLRAEDTAMYYCVKEGPSYGYFDYWGQGTLVTVSS
VL: SYELTQPPSVSVSLGQTATISCSGESLSKYYAQWFQQKAGQAPVLVIYQDTERPSGIPDRFSGSSSGNTHTLTISGARAEDEADYYCESAISPDTYVFGSGTQLTILG
notes: Full-length canine IgG-B; also called IL13-1G5
IL-13 IC50 (nM); inhibition of canine IL-13 mediated STAT6 phosphorylation in DH82 cells [1]: 94.1 nM | Kd [2]: 1.19 nM | koff [2]: 0.0018 s⁻¹ | kon [2]: 1.3e+06 M⁻¹ s⁻¹

B2: IL13-P3-05VH-cIgGB/IL13-P3-05VL-cCL (antibody, V domains shown)
VH: EVQLVESGGDSVRPGGSLRLSCVASGFTFSRYNMGWVRQAPGKGLQWVAWIYDGGSRTSYADAVKGRFTISRDNAKDTLYLQMDDLRVDDTAVYYCARDPSSWGSLFDYWGQGTLVTVSS
VL: SYVLTQPPSVTVPLRQTARISCGGDNIRSKNVHWYQQKPGQAPVLIIYNDSNRPTGIPERFSGSNSGNMATLTIRGALAEDEADYYCQVWANDGYVFGSGTQLTVLG
notes: Full-length canine IgG-B
IL-13 IC50 (nM); inhibition of canine IL-13 mediated STAT6 phosphorylation in DH82 cells [1]: 13.1 nM | Kd [2]: 5.58 nM | koff [2]: 0.00148 s⁻¹ | kon [2]: 252000 M⁻¹ s⁻¹

B3: IL13-P3-05VH-cIgGB/IL13-P3-05VLm-cCL (antibody, V domains shown)
VH: EVQLVESGGDSVRPGGSLRLSCVASGFTFSRYNMGWVRQAPGKGLQWVAWIYDGGSRTSYADAVKGRFTISRDNAKDTLYLQMDDLRVDDTAVYYCARDPSSWGSLFDYWGQGTLVTVSS
VL: SYVLTQPPSVTVPLRQTARISCGGDNIRSKNVHWYQQKPGQAPVLIIYQDSNRPTGIPERFSGSNSGNMATLTIRGALAEDEADYYCQVWANDGYVFGSGTQLTVLG
notes: Full-length canine IgG-B. The light chain has N replaced by Q in CDRL2 to remove a potential glycosylation site; also called IL13-P3-05Lm; IL-13 P3-05Lm
IL-13 IC50 (nM); inhibition of canine IL-13 mediated STAT6 phosphorylation in DH82 cells [1]: 4.44 nM | Kd [2]: 5.45 nM | koff [2]: 0.000793 s⁻¹ | kon [2]: 162000 M⁻¹ s⁻¹

B4: IL13-P3-1B4VH-cIgGB/IL13-P3-1B4VL-cCL (antibody)
heavy: ELTLQESGPGLVKPSQTLSLTCVVSGGSVTSNYYWNWIRQRPGRGLEWMGYWTGSTNYNPAFQGRISITADTAKNHFSLQLTSMTTEDTAVYYCARASTWLHGMDFWGHGTSLFVSSASTTAPSVFPLAPSCGSTSGSTVALACLVSGYFPEPVTVSWNSGSLTSGVHTFPSVLQSSGLYSLSSMVTVPSSRWPSETFTCNVAHPASKTKVDKPVPKRENGRVPRPPDCPKCPAPEMLGGPSVFIFPPKPKDTLLIARTPEVTCVVVDLDPEDPEVQISWFVDGKQMQTAKTQPREEQFNGTYRVVSVLPIGHQDWLKGKQFTCKVNNKALPSPIERTISKARGQAHQPSVYVLPPSREELSKNTVSLTCLIKDFFPPDIDVEWQSNGQQEPESKYRTTPPQLDEDGSYFLYSKLSVDKSRWQRGDTFICAVMHEALHNHYTQESLSHSPGK
light: SYVLTQSPSVSGSLGQTVTISCSGTTIGVVGANWYQQLPGKAPKLLVHSDGGRLSGVPDRFSGSESGNSAALTITGLQAEDEADYYCQSFDTTLGYVFGSGTQLTILGQPKASPSVTLFPPSSEELGANKATLVCLISDFYPSGVTVAWKADGSPVTQGVETTKPSKQSNNKYAASSYLSLTPDKWKSHSSFSCLVTHEGSTVEKKVAPAECS
notes: Full-length canine IgG-B; also called IL13-1B4
IL-13 IC50 (nM); inhibition of canine IL-13 mediated STAT6 phosphorylation in DH82 cells [1]: 97.5 nM | Kd [2]: 8.12 nM | koff [2]: 0.00208 s⁻¹ | kon [2]: 256000 M⁻¹ s⁻¹

B5: IL13-P3-1C6VH-cIgGB/IL13-P3-1C6VL-cCL (antibody, V domains shown)
VH: ELTLQESGPGLVKPSQTLSLTCVVSGGSVTNTYEWDWIRQRPGRGLEWMGSWTDNTWYNPAFQGRISITADTAKNQLSLQLSSVTTGDTAVYFCARWTKRWGYDYWGQGTLVTVSS
VL: QSVLTQPASVSGSLGQRVTISCSGRTNNIGYFGANWYQQVPGKAPKLLVSSYGNRPSGVPDRFSASNSANSATLTITGLQAEDEADYYCQSFDTTLGAVVFGGGTQLTVLG
IL-13 IC50 (nM); inhibition of canine IL-13 mediated STAT6 phosphorylation in DH82 cells [1]: 47.9 nM

B6: IL4-P4A-2D11VH-cIgGB/IL4-P4A-2D11VL-cCL (antibody, V domains shown)
VH: EEQLVEFGGDLVKPGESLRLSCVASGFTFNKYDMSWVRQAPGKGLQWVATVADDESFAYYTDSVKGRFTISRDNAKNTLYLQMNSLRAEDTAMYYCVGKTGSYWDIDFDLWGPGTLVTISS
VL: QAVLTQPPSVSAALGQRVTISCSGSTDNVGTVGASWYQHLPGRAPKLLVYIVGDRPSGVPDRFSGSKSGTSATLTITGLQAEDEADYYCSSWDDSLRGIVFGGGTHLTVLG
notes: Full-length canine IgG-B; also called IL4-2D11
IL-4 IC50 (nM); inhibition of canine IL-4 mediated STAT6 phosphorylation in DH82 cells [3]: 0.91 nM | binding result [4]: binds
